Changes are numbered by the printed parent chain. Names may count otherwise.
T1: mouse IL-2Rαβγc (on CTLL2-STAT5 reporter cells) (mouse, UniProt P01590 22-268; P16297 27-539; P34902 23-369)
T1 sequence (looked up) 1: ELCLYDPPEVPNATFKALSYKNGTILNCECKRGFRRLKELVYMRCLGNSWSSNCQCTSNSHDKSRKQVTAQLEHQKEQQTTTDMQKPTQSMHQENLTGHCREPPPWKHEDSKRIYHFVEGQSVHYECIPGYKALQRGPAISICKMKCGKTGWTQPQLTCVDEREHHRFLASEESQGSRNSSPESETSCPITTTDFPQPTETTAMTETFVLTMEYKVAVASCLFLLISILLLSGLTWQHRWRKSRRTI
T1 sequence (looked up) 2: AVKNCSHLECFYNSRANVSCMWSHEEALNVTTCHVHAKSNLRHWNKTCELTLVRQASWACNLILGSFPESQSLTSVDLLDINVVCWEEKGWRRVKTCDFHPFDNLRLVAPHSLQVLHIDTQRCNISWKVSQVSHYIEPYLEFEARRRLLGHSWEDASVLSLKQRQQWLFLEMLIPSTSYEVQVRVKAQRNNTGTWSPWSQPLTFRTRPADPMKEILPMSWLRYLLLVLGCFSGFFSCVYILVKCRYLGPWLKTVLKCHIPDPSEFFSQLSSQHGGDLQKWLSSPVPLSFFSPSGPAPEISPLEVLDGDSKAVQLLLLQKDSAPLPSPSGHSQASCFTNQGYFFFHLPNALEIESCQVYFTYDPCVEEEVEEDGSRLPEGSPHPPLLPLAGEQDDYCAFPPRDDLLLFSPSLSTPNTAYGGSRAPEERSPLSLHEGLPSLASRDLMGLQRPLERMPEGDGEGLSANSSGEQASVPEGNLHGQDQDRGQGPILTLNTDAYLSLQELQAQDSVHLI
T1 sequence (looked up) 3: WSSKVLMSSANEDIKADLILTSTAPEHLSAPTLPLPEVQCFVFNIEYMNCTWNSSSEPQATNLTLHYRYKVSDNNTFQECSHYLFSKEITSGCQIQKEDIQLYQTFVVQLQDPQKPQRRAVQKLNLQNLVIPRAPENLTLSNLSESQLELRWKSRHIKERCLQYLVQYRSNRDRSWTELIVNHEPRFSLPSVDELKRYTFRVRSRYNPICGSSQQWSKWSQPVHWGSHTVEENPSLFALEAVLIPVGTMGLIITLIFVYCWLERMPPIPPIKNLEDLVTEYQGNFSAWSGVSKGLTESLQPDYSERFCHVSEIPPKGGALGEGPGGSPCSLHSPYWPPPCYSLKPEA

T2: human IL-2Rβγc (on DERL-7 cells, U2OS IL2RB/IL2RG cells, CD25 knockout Kit225-STAT5 cells, primary CD8+ CTLs) (human, UniProt P14784 27-551; P31785 23-369)
T2 sequence (looked up) 1: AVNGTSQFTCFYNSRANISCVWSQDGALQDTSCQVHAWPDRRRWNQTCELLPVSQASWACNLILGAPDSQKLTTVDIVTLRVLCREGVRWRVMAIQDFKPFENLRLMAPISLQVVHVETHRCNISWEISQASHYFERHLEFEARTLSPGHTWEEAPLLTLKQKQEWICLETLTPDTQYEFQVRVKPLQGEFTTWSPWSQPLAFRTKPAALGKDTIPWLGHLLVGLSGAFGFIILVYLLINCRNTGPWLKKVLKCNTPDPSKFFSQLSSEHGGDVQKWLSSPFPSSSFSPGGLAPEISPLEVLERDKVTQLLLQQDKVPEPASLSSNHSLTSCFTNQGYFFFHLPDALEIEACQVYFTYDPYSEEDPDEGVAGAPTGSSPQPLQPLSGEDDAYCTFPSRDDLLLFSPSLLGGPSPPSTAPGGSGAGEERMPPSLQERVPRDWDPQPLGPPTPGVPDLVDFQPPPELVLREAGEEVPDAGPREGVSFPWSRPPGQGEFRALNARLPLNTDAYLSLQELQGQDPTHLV
T2 sequence (looked up) 2: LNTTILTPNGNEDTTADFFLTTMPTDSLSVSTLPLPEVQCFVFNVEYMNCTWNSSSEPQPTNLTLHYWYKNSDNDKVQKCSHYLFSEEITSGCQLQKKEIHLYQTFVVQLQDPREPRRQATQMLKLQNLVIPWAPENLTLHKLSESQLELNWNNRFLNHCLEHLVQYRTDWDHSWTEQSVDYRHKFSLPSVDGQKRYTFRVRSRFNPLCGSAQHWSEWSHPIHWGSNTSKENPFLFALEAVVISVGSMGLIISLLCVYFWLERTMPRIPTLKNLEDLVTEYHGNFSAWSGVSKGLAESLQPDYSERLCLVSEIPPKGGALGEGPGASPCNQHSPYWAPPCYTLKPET

T3: Human IL-2Rβ (Table 7B) (human, UniProt P14784 27-239, limits assumed)
T3 sequence (looked up): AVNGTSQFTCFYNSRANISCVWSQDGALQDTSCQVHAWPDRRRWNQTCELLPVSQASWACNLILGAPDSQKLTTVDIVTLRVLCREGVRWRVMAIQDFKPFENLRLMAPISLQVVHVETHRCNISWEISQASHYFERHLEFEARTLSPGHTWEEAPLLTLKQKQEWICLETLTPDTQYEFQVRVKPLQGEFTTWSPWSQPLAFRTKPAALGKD

T4: human IL-2Rαβγc (on Kit225-STAT5 reporter cells, NK-92 cells, primary Treg cells) (human, UniProt P01589 22-272; P14784 27-551; P31785 23-369)
T4 sequence (looked up) 1: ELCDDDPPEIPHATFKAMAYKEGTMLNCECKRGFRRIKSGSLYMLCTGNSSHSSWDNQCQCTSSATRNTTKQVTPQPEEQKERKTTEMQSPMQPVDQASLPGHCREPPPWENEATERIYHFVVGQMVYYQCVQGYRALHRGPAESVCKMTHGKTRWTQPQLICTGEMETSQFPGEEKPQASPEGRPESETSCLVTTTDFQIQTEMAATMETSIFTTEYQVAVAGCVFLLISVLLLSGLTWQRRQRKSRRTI
T4 sequence (looked up) 2: T2 sequence (looked up) 1
T4 sequence (looked up) 3: T2 sequence (looked up) 2

B1: Ald-6HIS_F41K/E60T (ligand)
chain: PTSSSTKKTQLQLEHLLLDLQMILNGINNYKNPKLTRMLTKKFYMPKKATELKHLQCLETELKPLEEVLNLAQSKNFHLRPRDLISNINVIVLELKGSETTFMCEYADETATIVEFLNRWITFSQSIISTLTGGSHHHHHH
B2: Ald-6HIS_R37A/E60T (ligand)
chain: B1 chain with R37A, K41F
B3: Ald-6HIS_R37A/F41K (ligand)
chain: B1 chain with R37A, T60E
B4: Ald-6HIS_R37A/F41K/E60T (ligand)
chain: B1 chain with R37A
B5: Ald-6HIS_R37A/T40D (ligand)
chain: B1 chain with R37A, T40D, K41F, T60E
B6: Ald-6HIS_R37A/T40D/E60T (ligand)
chain: B1 chain with R37A, T40D, K41F
B7: Ald-6HIS_R37A/T40D/F41K (ligand)
chain: B1 chain with R37A, T40D, T60E
B8: Ald-6HIS_T40D/E60T (ligand)
chain: B1 chain with T40D, K41F
B9: Ald-6HIS_T40D/F41K (ligand)
chain: B1 chain with T40D, T60E
B10: Ald-6HIS_T40D/F41K/E60T (ligand)
chain: B1 chain with T40D
B11: Ald-6HIS_E61S/P64A/Y106A (ligand)
chain: B1 chain with K41F, T60E, E61S, P64A, Y106A
B12: Ald_F41/Y44A/l71G* (ligand)
chain: B1 chain with K41A, Y44A, T60E, L71G

biological target: T1, mouse IL-2Rαβγc (on CTLL2-STAT5 …); assay: cell-based or functional assay

| Binder | STAT5-CTLL2 EC50 [nM] | STAT5-CTLL2 EC50 Fold Change [fold] |
| --- | --- | --- |
| B1 | 103 | 11400 |
| B2 | 0.129 | 14.3 |
| B3 | 11 | 1220 |
| B4 | 95.2 | 10500 |
| B5 | 0.101 | 11.2 |
| B6 | 6.22 | 689 |
| B7 | 12.7 | 1400 |
| B8 | 2.2 | 244 |
| B9 | 6.31 | 699 |
| B10 | 98.5 | 10900 |

biological target: T2, human IL-2Rβγc (on DERL-7 cells, U2OS …); assay: cell-based or functional assay

| Binder | DERL7 EC50 Fold Change [fold] | DERL7 cell assay EC50 [nM] |
| --- | --- | --- |
| B1 | 2.01 | 0.036 |
| B2 | 2.14 | 0.038 |
| B3 | 1.18 | 0.021 |
| B4 | 1.46 | 0.026 |
| B5 | 1.31 | 0.023 |
| B6 | 2.41 | 0.043 |
| B7 | 0.71 | 0.013 |
| B8 | 1.55 | 0.028 |
| B9 | 0.65 | 0.012 |
| B10 | 1.4 | 0.025 |

biological target: T2, human IL-2Rβγc (on DERL-7 cells, U2OS …); assay: cell-based or functional assay; remark: another data set of the same source

| Binder | U2OS-IL2Rbg EC50 [nM] |
| --- | --- |
| B11 | 5.77 |

biological target: T1, mouse IL-2Rαβγc (on CTLL2-STAT5 …); assay: cell-based or functional assay; remark: another data set of the same source

| Binder | CTLL2-STAT5 EC50 [nM] |
| --- | --- |
| B11 | > 7 |

biological target: T3, Human IL-2Rβ (Table 7B); assay: SPR (Biacore T200)

| Binder | Kd [nM] | koff [s⁻¹] | kon [M⁻¹ s⁻¹] |
| --- | --- | --- | --- |
| B1 | 1100 | 0.47 | 440000 |
| B2 | 1100 | 0.082 | 75000 |
| B3 | 1000 | 0.3 | 300000 |
| B4 | 860 | 0.013 | – |
| B5 | 730 | 0.25 | 340000 |
| B6 | 1900 | 0.42 | 220000 |
| B7 | 590 | 0.24 | 410000 |
| B8 | 990 | 0.36 | 360000 |
| B9 | 980 | 0.32 | 330000 |
| B10 | 1000 | 0.36 | 350000 |
| B12 | 770 | 0.3 | 390000 |

biological target: T2, human IL-2Rβγc (on DERL-7 cells, U2OS …); assay: cell-based or functional assay; remark: another data set of the same source

| Binder | U2OS B/BG EC50 Fold Change [fold] | U2OS B/BG bridging cell assay EC50 [nM] |
| --- | --- | --- |
| B1 | 3.15 | 0.502 |
| B2 | 3.28 | 0.522 |
| B3 | 2.32 | 0.37 |
| B4 | 2.04 | 0.325 |
| B5 | 2.83 | 0.451 |
| B6 | 2.53 | 0.403 |
| B7 | 1.16 | 0.185 |
| B8 | 3.09 | 0.492 |
| B9 | 1.84 | 0.294 |
| B10 | 3.15 | 0.503 |

biological target: T4, human IL-2Rαβγc (on Kit225-STAT5 …); assay: cell-based or functional assay

| Binder | NK-92 EC50 Fold Change [fold] | NK-92 cell assay EC50 [nM] |
| --- | --- | --- |
| B1 | 11.4 | 0.079 |
| B2 | 4.46 | 0.031 |
| B3 | 7.31 | 0.051 |
| B4 | 9.03 | 0.063 |
| B5 | 2.06 | 0.014 |
| B6 | 11 | 0.076 |
| B7 | 3.73 | 0.026 |
| B8 | 4.61 | 0.032 |
| B9 | 2.81 | 0.02 |
| B10 | 9.09 | 0.063 |

From patent US20210340207A1 (Merck Sharp & Dohme, published 2021)
